Assay results as given in IntAct's records for PubMed 20671708.

Target: ago2_human AGO2 (UniProt Q9UKV8)
Sequence (Q9UKV8 whole entry): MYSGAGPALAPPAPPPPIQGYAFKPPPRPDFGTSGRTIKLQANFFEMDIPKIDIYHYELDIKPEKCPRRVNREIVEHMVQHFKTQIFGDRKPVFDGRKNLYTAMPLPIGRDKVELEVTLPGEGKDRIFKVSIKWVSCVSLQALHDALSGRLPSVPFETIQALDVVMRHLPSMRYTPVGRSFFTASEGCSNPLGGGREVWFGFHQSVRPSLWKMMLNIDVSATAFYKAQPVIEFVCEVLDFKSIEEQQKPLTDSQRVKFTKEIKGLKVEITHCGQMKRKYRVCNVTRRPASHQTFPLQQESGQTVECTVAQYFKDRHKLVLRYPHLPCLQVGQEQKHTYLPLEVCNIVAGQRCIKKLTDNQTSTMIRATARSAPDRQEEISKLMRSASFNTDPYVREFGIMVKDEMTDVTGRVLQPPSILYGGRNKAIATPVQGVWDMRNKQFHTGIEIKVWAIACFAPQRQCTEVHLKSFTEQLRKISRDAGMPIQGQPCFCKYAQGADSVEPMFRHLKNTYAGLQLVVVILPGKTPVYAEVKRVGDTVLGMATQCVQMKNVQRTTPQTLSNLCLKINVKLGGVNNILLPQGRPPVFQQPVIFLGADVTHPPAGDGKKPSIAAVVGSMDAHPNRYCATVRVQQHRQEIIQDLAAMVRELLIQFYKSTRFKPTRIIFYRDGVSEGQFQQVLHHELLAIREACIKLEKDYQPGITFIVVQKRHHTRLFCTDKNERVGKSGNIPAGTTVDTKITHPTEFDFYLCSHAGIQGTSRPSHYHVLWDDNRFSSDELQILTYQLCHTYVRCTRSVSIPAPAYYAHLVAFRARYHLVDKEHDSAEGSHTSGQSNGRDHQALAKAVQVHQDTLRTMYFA

Substance | effect of a mutation on the interaction
Leucine-rich repeat serine/threonine-protein kinase 2 (Homo sapiens), Q5S007 G2019S | increasing interaction
Leucine-rich repeat serine/threonine-protein kinase 2 (Homo sapiens), Q5S007 K1906M;D1994A;D2017A | increasing interaction
